In patent publication US20260232801A1 (published 2026):

T1: TP53 wild-type peptide on HLA-A*02:01 (human)
T1 peptide: HMTEVVRRC

T2: TP53 R175H peptide on HLA-A*02:01 (human)
T2 peptide: HMTEVVRHC


Legend:
[1] = target: T1, TP53 wild-type peptide on HLA-A*02:01; experiment: cytokine release
[2] = target: T2, TP53 R175H peptide on HLA-A*02:01; experiment: multimer staining

Binder	binding result [1]	binding result [2]
TCR 3A (TCR, V domains shown) Valpha: GEDVEQSLFLSVREGDSSVINCTYTDSSSTYLYWYKQEPGAGLQLLTYIFSNMDMKQDQRLTVLLNKKDKHLSLRIADTQTGDSAIYFCAEISANQAGTALIFGKGTTLSVSS Vbeta: DTGVSQNPRHKITKRGQNVTFRCDPISEHNRLYWYRQTLGQGPEFLTYFQNEAQLEKSRLLSDRFSAERPKGSFSTLEIQRTEQGDSAMYLCASSPLDSYQETQYFGPGTRLLVL	no recognition	recognises
TCR 3B (TCR, V domains shown) Valpha: AQKITQTQPGMFVQEKEAVTLDCTYDTSDQSYGLFWYKQPSSGEMIFLIYQGSYDEQNATEGRYSLNFQKARKSANLVISASQLGDSAMYFCAMREGRGRRALTFGSGTRLQVQP Vbeta: ETGVTQTPRHLVMGMTNKKSLKCEQHLGHNAMYWYKQSAKKPLELMFVYSLEERVENNSVPSRFSPECPNSSHLFLHLHTLQPEDSALYLCASSQDTAWDSGGETDTQYFGPGTRLTVL	no recognition	recognises
TCR 3C (TCR, V domains shown) Valpha: GEDVEQSLFLSVREGDSSVINCTYTDSSSTYLYWYKQEPGAGLQLLTYIFSNMDMKQDQRLTVLLNKKDKHLSLRIADTQTGDSAIYFCAEGYGGKLIFGQGTELSVKP Vbeta: GAGVSQTPSNKVTEKGKYVELRCDPISGHTALYWYRQSLGQGPEFLIYFQGTGAADDSGLPNDRFFAVRPEGSVSTLKIQRTERGDSAVYLCASSSKTGVVGEQFFGPGTRLTVL	no recognition	recognises
TCR 4A (TCR, V domains shown) Valpha: AQTVTQSQPEMSVQEAETVTLSCTYDTSESNYYLFWYKQPPSRQMILVIRQEAYKQQNATENRFSVNFQKAAKSFSLKISDSQLGDTAMYFCAFMKWQGGSEKLVFGKGTKLTVNP Vbeta: DTAVSQTPKYLVTQMGNDKSIKCEQNLGHDTMYWYKQDSKKFLKIMFSYNNKELIINETVPNRFSPKSPDKAHLNLHINSLELGDSAVYFCASSQALAGEVDTQYFGPGTRLTVL	no recognition	recognises
TCR 7A (TCR, V domains shown) Valpha: AQKVTQAQTEISVVEKEDVTLDCVYETRDTTYYLFWYKQPPSGELVFLIRRNSFDEQNEISGRYSWNFQKSTSSFNFTITASQVVDSAVYFCALRNSGNTPLVFGKGTRLSVIA Vbeta: DSGVTQTPKHLITATGQRVTLRCSPRSGDLSVYWYQQSLDQGLQFLIQYYNGEERAKGNILERFSAQQFPDLHSELNLSSLELGDSALYFCASSVDWVQETQYFGPGTRLLVL	no recognition	recognises
TCR 1C (TCR, V domains shown) Valpha: DQQVKQNSPSLSVQEGRISILNCDYTNSMFDYFLWYKKYPAEGPTFLISISSIKDKNEDGRFTVFLNKSAKHLSLHIVPSQPGDSAVYFCAATVGLAGNMLTFGGGTRLMVKP Vbeta: DSGVTQTPKHLITATGQRVTLRCSPRSGDLSVYWYQQSLDQGLQFLIQYYNGEERAKGNILERFSAQQFPDLHSELNLSSLELGDSALYFCASSTPLSGSSTDTQYFGPGTRLTVL	no recognition	recognises

More lines, now with the values ahead:

binding result [1]	binding result [2]	Binder
no recognition	recognises	TCR 7D (TCR, V domains shown) Valpha: QKEVEQDPGPLSVPEGAIVSLNCTYSNSAFQYFMWYRQYSRKGPELLMYTYSSGNKEDGRFTAQVDKSSKYISLFIRDSQPSDSATYLCASSFSGYNKLIFGAGTRLAVHP Vbeta: DSGVTQTPKHLITATGQRVTLRCSPRSGDLSVYWYQQSLDQGLQFLIQYYNGEERAKGNILERFSAQQFPDLHSELNLSSLELGDSALYFCASSERLAGAIADTQYFGPGTRLTVL
no recognition	recognises	TCR 1D (TCR, V domains shown) Valpha: EDQVTQSPEALRLQEGESSSLNCSYTVSGLRGLFWYRQDPGKGPEFLFTLYSAGEEKEKERLKATLTKKESFLHITAPKPEDSATYLCAVHSNYQLIWGAGTKLIIKP Vbeta: DSGVTQTPKHLITATGQRVTLRCSPRSGDLSVYWYQQSLDQGLQFLIHYYNGEERAKGNILERFSAQQFPDLHSELNLSSLELGDSALYFCASSTPLRTRGTDTQYFGPGTRLTVL
no recognition	recognises	TCR 1B (TCR, V domains shown) Valpha: AQKITQTQPGMFVQEKEAVTLDCTYDTSDPSYGLFWYKQPSSGEMIFLIYQGSYDQQNATEGRYSLNFQKARKSANLVISASQLGDSAMYFCAMREGFSGGYNKLIFGAGTRLAVHP Vbeta: DAGVTQSPTHLIKTRGQQVTLRCSPISGHKSVSWYQQVLGQGPQFIFQYYEKEERGRGNFPDRFSARQFPNYSSELNVNALLLGDSALYLCASSDDTGTTKSSGANVLTFGAGSRLTVL
no recognition	recognises	TCR 1A (TCR, V domains shown) Valpha: SQQGEEDPQALSIQEGENATMNCSYKTSINNLQWYRQNSGRGLVHLILIRSNEREKHSGRLRVTLDTSKKSSSLLITASRAADTASYFCATGSNYGGSQGNLIFGKGTKLSVKP Vbeta: EAGVAQSPRYKIIEKRQSVAFWCNPISGHATLYWYQQILGQGPKLLIQFQNNGVVDDSQLPKDRFSAERLKGVDSTLKIQPAKLEDSAVYLCASSLDYGSSYEQYFGPGTRLTVT
no recognition	recognises	TCR 7B (TCR, V domains shown) Valpha: DAKTTQPTSMDCAEGRAANLPCNHSTISGNEYVYWYRQIHSQGPQYIIHGLKNNETNEMASLIITEDRKSSTLILPHATLRDTAVYYCIVPRGFSNTGKLIFGQGTTLQVKP Vbeta: GAVVSQHPSRVICKSGTSVKIECRSLDFQATTMFWYRQFPKQSLMLMATSNEGSKATYEQGVEKDKFLINHASLTLSTLTVTSAHPEDSSFYICSASESLALASEQYFGPGTRLTVT
no recognition	recognises	TCR 8A (TCR, V domains shown) Valpha: AQSVAQPEDQVNVAEGNPLTVKCTYSVSGNPYLFWYVQYPNRGLQFLLKYITGDNLVKGSYGFEAEFNKSQTSFHLKKPSALVSDSALYFCAVRAPGNTPLVFGKGTRLSVIA Vbeta: DTAVSQTPKYLVTQMGNDKSIKCEQNLGHDTMYWYKQDSKKFLKIMFSYNNKELIINETVPNRFSPKSPDKAHLNLHINSLELGDSAVYFCASSQDLGFDEKLFFGSGTQLSVL
